Experimental data as given in the DeepSol protein solubility set.

assay: soluble on expression in E. coli; label from the status in PepcDB or PDB records

Sequence | soluble on expression in E. coli
MNETEFYAYHIVTRKKMHIGQMIPFNKNQHNTLYHFFFEREQLNANGEDGIQILNNHYKNDELHINNENAKVVISYMDQTIRAARETIVEMVRLQEFPEYPSRLSCLYAAKSYEDALKWKALFDSYNREVLQIVKLRVIGSSFEGDGNLLPKEDGIPFSQKIEQARKYWKGNIRNELPELLINGEIEVVEIIDDFSSIHI | soluble
MVGAHQMKSEEQANMQLQQQAVLGLNWMQDSGEYKALAYQAYNAAKVAFDHAKVAKGKKKAVVADLDETMLDNSPYAGWQVQNNKPFDGKDWTRWVDARQSRAVPGAVEFNNYVNSHKGKVFYVTNRKDSSEKAGTIDDMKRLGFNGVEESAFYLKKDKSAKAARFAEIEKQGYEIVLYVGDNLDDFGNTVYGKLNADRRAFVDQNQGKFGKTFIMLPNANYGGWEGGLAEGYFKKDTQGQIKARLDAVQAWDGK | soluble
MGFKCGIVGLPNVGKSTLFNALTKAGIEAANFPFCTIEPNTGVVPMPDPRLDQLAEIVKPQRTLPTTMEFVDIAGLVKGASKGEGLGNQFLTNIRETEAIGHVVRCFENDNIIHVSGKVNPADDIEVINTELALADLDTCERAIHRVQKKAKGGDKDAKAELAVLEKCLPQLENAGMLRALDLSAEEKAAIRYLSFLTLKPTMYIANVNEDGFENNPYLDQVREIAAKEGSVVVPVCAAVEADIAELDDEERDEFMQELGLEEPGLNRVIRAGYKLLNLQTYFTAGVKEVRAWTIPVGATAPQAAGKIHTDFEKGFIRAQTISFEDFITYKGEQGAKEAGKMRAEGKDYIVKDGDVMNFLFNV | soluble
AAAMKLAYWMYAGPAHIGTLRIASSFKNVHGIMHAPLGDDYFNVMRSMLERERDFTPVTASIVDRHVLARGSQEKVVDNIIRKDTEEHPDLIVLTPTCTSSILQEDLQNFVRRASLSTTADVLLADVNHYRVNELQAADRTLEQIVQFYIDKARRQGTLGTSKTPTPSVNIIGITTLGFHNQHDCRELKQLMADLGIQVNLVIPAAATVHDLQRLPQAWFNLVPYREIGGLTAQYLEREFGQPSVRITPMGVVETARCIRAIQGVLNAQGAGVNYEAFIEQQTREVSQAAWFSRSIDCQNLTGKKAVVFGDNTHAAAMTKILSREMGIHVVWAGTYCKYDADWFRAEVAGFCDEVLITDDHTVVGDAIARVEPAAIFGTQMERHVGKRLNIPCGVIAAPIHIQDFPVGYRPFLGYEGTNQLVDLIYNSFTLGMEDHLLEIFGGHDTKAVIHKGLSADSDLTWTAAGLAELNKIPGFVRGKVKRNTEKFAREQGISEITVEVLYAAKEAVGA | soluble
MSLARQVTAFNTGWQFKKGPFATDPMRAASQWDGKWETVEIPHTWNAMDMQVQSGSFYEGAGYYRKTQFFPHDLEGKRVFLRFEGVGACAEVYVNGKLAGTHKGGYSAFACEIGTALKLGAENEIIVKADNKARPDVIPVNQNLFGVYGGIYRPVWLIVTEQNNITVTDCASPGVYITQKDVSKKSADITVKVKLDNAGLQPAAVTLENTIYTQEGQKVGTHSRSFDLSPQGTQTYLSTFKLKNPHLWQGRKDPYLYKVVCRLMADGKVIDEVVQPLGVRKYEIVAGKGFFLNGEKYSMYGVTRHQDWWGLGSALKNEHHDFDLAAIMDVGATTVRFAHYQQSDYLYSRCDTLGLIIWAEIPCVNRVTGYETENAQSQLRELIRQSFNHPSIYVWGLHNEVYQPHEYTAALTRSLHDLAKTEDPDRYTVSVNGYGHMDHPVNLNADIQGMNRYFGWYEKKIQDIKPWVEQLEKDYPYQKLMLTEYGADANLAHQTEYLGDALNWGKPFYPETFQTKTHEYQWSIIKDHPYIIASYLWNMFDFAVPMWTRGGVPARNMKGLITFDRKTKKDSYFWYKANWSEEPVLYLTQRRNADREKRTTAVTVYSNIGTPKVYLNGQELSGIRNGYTDVHYVFDNVSLADGKNILKAVVSTKGKEYTDEIEWNYSGEKNREIDSYENKNEHSGEGHHHHHH | soluble
MTESKTAIIFDMDGVLVDSEAYYYERRKAFLAEFDLTIEGLTLPELVGADMRSLWQKIEQVNKKELDIAFLNEQYIAYKKAHPIDYLAVLDENAKRVLQFLKRQGYKIGLASSSTKDAIEEVLTVGQLSSYFDAVVSGEDFEESKPAPDIYLHTLQELAVAPQECIAIEDSEKGIASAKEAGLEVWAMRDEHFGMDQSQADAFLTQLSDICKKISENRIDESSESTPS | not soluble
MSVIKMTDLDLAGKRVFIRADLNVPVKDGKVTSDARIRASLPTIELALKQGAKVMVTSHLGRPTEGEYNEEFSLLPVVNYLKDKLSNPVRLVKDYLDGVDVAEGELVVLENVRFNKGEKKDDETLSKKYAALCDVFVMDAFGTAHRAQASTHGIGKFADVACAGPLLAAELDALGKALKEPARPMVAIVGGSKVSTKLTVLDSLSKIADQLIVGGGIANTFIAAQGHDVGKSLYEADLVDEAKRLLTTCNIPVPSDVRVATEFSETAPATLKSVNDVKADEQILDIGDASAQELAEILKNAKTILWNGPVGVFEFPNFRKGTEIVANAIADSEAFSIAGGGDTLAAIDLFGIADKISYISTGGGAFLEFVEGKVLPAVAMLEERAKK | soluble
MILVIDVGNTNTVFGVYDGKKLLNHWRMETSKGKTSDEYGMFIVSLLSYEKIDVGKIEAVVIASVVPPIMYSLEHAIRKYFKLEPMVVGPGIKTGINIKYENPREVGADRIINAVAALELYGGPLIIVDFGTATTFCAVSSKGEYLGGVICPGIKISAEALFQKTAKLPKIDLVKPETVIGRNTVSSMQSGIIYGYVGEVDYIVRRMKKEMKEDNIKVIATGGLARLIASESETIDEINGLLTLEGLRIIYERNK | soluble
MSLKISKLKKNVVLKNGTIIDPFNNYEKKGDIHIENGKIKAVGKIPTPKSSEIIDCKNLNITHGFFDLHVHFREPGGEDKEDLNSGSLAALAGGFTGVCTMPNTNPPIDSPESIRYIIDRSEECPIYIYPIGSITKSQEGKELTEMGAMLSQGAVAFSDDGLPISDAGVMYNALDYSSMFDVPIINHAEDECLKQDSVMHEGEVSTHLGLPGSPDITESNMVFRDLELSIRAGARIHIPHVSSEKSVNHIKTMKKKSDRITAEVSPHHIFFCDEDLYSFDTNLKVAPPIRTKNDRKALIDALKNGIIDCIATDHAPHTIEEKEGTFDIAPFGMIGLESCFGAVNKVLTKDKKISHLELIKLLTVNPRKIMKLNQDLFKEGTNAEIAIYDPNIEWKFSLENIYSKSNNSPLFKEGHHHHHH | not soluble
MSLDTTPEHLVGTDAETIDLSFAAPAAPVEILHAAFATALEQLPRHFERHGYDRYGTAELREAVARWYQRRGLPTRPDHILITNGAQHALALLTRVLLSPRDKVLIDHPTYPHAITTFTQARARLLPVAVTSSGWDTEQLQAAGQAANLAYLIPDFHNPTGMCMPTSVRQQLRLACPTVVDETMTDLALDVPSPEPLALHMPTAISIGSVSKSVWGGLRTGWIRALPSLLERVEQARPTTDLGTPVVEQLATAVLLNEHQTQRPDTLQQLRSQRDALWQALTEHLPNVHAPQPAGGVTLWAAFPGPVSSRLAAMAPDHGVTIAAGPRFGIGGAFERNIRLPYTLPSSQLAQAIRRLAQAAQALAQGATGTEGHHHHHH | not soluble
MSLSYKKIAIITGANSGFGKEFLKLLINEEEITEIWAVARNKARLNQLVDEFGSKVKIFSKDLSKIEEVKEIGTFLSKENVCIKYLINNAGFAKFCSYNDLSIDESINMIDLNISAVVALGLICIPYMQKGSHIMNISSQASFQPLPYQNIYSSTKAFIRNYTRALNVELKSKGINAIAVCPGWMSTNLFKRGIVVAEKGTKNFPGIVSPDVVAKKALKDAKKNKDISVYGINTKSSHLLAKLLPQKMMMKVWLMQQHIKEGHHHHHH | soluble
DNNNTIEEQLNTLEKYSQGRLGVALINTEDNSQITYRGEERFAMASTSKVMAVAAVLKASEKQAGLLDKNITIKKSDLVAYSPITEKHLTTGMTLAELSAATLQYSDNTAMNKILDYLGGPAKVTQFARSINDVTYRLDRKEPELNTAIHGDPRDTTSPIAMAKSLQALTLGDALGQSQRQQLVTWLKGNTTGDNSIKAGLPKHWVVGDKTGSGDYGTTNDIAVIWPENHAPLILVVYFTQQEQNAKYRKDIIAKAAEIVTKEISNSPQTK | soluble
MRGSHHHHHHTDPALRASVKVIVTDMDGTFLNDAKTYNQPRFMAQYQELKKRGIKFVVASGNQYYQLISFFPELKDEISFVAENGALVYEHGKQLFHGELTRHESRIVIGELLKDKQLNFVACGLQSAYVSENAPEAFVALMAKHYHRLKPVKDYQEIDDVLFKFSLNLPDEQIPLVIDKLHVALDGIMKPVTSGFGFIDLIIPGLHKANGISRLLKRWDLSPQNVVAIGDSGNDAEMLKMARYSFAMGNAAENIKQIARYATDDNNHEGALNVIQAVLDNTSPFNSGLCGR | soluble
MSLNTVVTALPYFQERAERVASAINAEFIHYHSGLFSELYRTTQRIVAIMAIGIVIRNIAPLIHDKWTDPAVVVISPDMQYAIPVLGGHHGANDLVYLLQERCGLTPVITTATEATGREAVEVLANREHLRIVNTRSTRQANASVLTGSAKVYRLPGPGMVIAGSGVSFLVADGPYSVGIGCRLGTSADEIVHAIHSACETAGISQEDIAIYATGGIKTHESGLLDAVRTLGRNIIFLNHSDLSEVAPPSQSAASRFGLPGVAEPAALAVSVHHHLILEKQIYGNVTIAIAEEGHHHHHH | not soluble
AIATGVYADAVLVSVTVGDTVTLHTAGVKNLQPADVKWYFNDIRIAQLDGDLRFNCTDIQCNDRTEIFIDRLRLDRKTGALTIVNITNTHSGVYQLVVIGGGGTIFNVTVHDDPATHYNQVKKNQGESVTFNPGVRRDLIVVLKCLLNNTLIAEISVNQSQICADVQCKERFTDRLKLDNESASLTITNTNITDSGNYTSVILISSDRRFSITREKRFSLTVTSLSSSQPSGGAIAGIVVMLLLLL | soluble
MAKEKKRGFFSWLGFGQKEQTPEKETEVQNEQPVVEEIVQAQEPVKASEQAVEEQPQAHTEAEAETFAADVVEVTEQVAESEKAQPEAEVVAQPEPVVEETPEPVAIEREELPLPEDVNAEAVSPEEWQAEAETVEIVEAAEEEAAKEEITDEELETALAAEAAEEAVMVVPPAEEEQPVEEIAQEQEKPTKEGFFARLKRSLLKTKENLGSGFISLFRGKKIDDDLFEELEEQLLIADVGVETTRKIITNLTEGASRKQLRDAEALYGLLKEEMGEILAKVDEPLNVEGKAPFVILMVGVNGVGKTTTIGKLARQFEQQGKSVMLAAGDTFRAAAVEQLQVWGQRNNIPVIAQHTGADSASVIFDAIQAAKARNIDVLIADTAGRLQNKSHLMEELKKIVRVMKKLDVEAPHEVMLTIDASTGQNAVSQAKLFHEAVGLTGITLTKLDGTAKGGVIFSVADQFGIPIRYIGVGERIEDLRPFKADDFIEALFARED | soluble
MSLELLSNRLEFLREAERLKDVLRSAHTSSGRPESTAEHSWRLCLMALAFEDQLAGLDLGKVLRMCVVHDLGEAIHGDIPAVEQAAHPDKGEQERADLLQLTRHLDAPLRDRLLALWDEYERGESAEALAVKALDKLETLLQHTQGDNPADFDYAFNLDYGRRYTDRAPLFKTLRELLDARTRQRLAVRRDA | not soluble
MGSDKIHHHHHHMLNDANLQAADMPDTEFTLTRNGFGRLVLTLGDGTAHEGVVPVRAFPIGAPDDGIGMMSTDGHELAWIPRLDRLPAPQRAMVEEELAAREFMPEIQRIVGVSTFATPSEWTVQTDRGQTTLVLRGEEDIRRLAGTTLLISDSHGIHYLIRDLMALDRASRKILDRFL | not soluble
MGSDKIHHHHHHIEPCADYTTRELDLRNEIKGAEELEEIKYEISKSFPMDELRFPKYWSDLSNQDVLVSEFIEGKSLEEGIEEKSLSWDTLLRLFRIHGAYLFGIGTFHGDLHPGNCIIDNDGKFVFIDNGAICHAPSKVNLSLFQFFENLSSNDFDAAFDSLLGLSDSPLKSTNLDNYYKEMNKIYDGFQNQTVGEKSLTRIMMQTVQAAVEKAGADFGEEAFPIIRALMYLDGLVLRTHPDVKLIESMGPYLEEFRLGLDLENKIKNV | not soluble
